Experimental data as given in the supplement of paper PMC9112550, “Optimization of the antimicrobial peptide Bac7 by deep mutational scanning” (BMC Biology, 2022).

Each sequence was assayed on Escherichia coli TOP10 (assay: shrunken log2 fold change of peptide-encoding DNA abundance (4.5 h post-induction vs induction); higher = less antimicrobial activity (less host growth inhibition)). Conditions: time post-induction: 4.5 h; library: site-saturation at positions 5, 18, 19, 20.
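Also: peptides expressed intracellularly from a pBAD plasmid library in pooled LB shake-flask culture, induced with 0.3% L-arabinose, DNA abundance read by NGS, three biological replicates, DESeq2 with apeglm shrinkage.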

Sequence | shrunken log2 fold change
RRIRKRPPRLPRPRPRPLHPPRP | 0.158
RRIRKRPPRLPRPRPRPLIRPRP | -0.0949
RRIRKRPPRLPRPRPRPLKPPRP | 0.238
RRIRKRPPRLPRPRPRPLLNPRP | -0.295
RRIRKRPPRLPRPRPRPLLVPRP | 0.372
RRIRKRPPRLPRPRPRPLNIPRP | -0.0957
RRIRKRPPRLPRPRPRPLPGPRP | 0.529
RRIRKRPPRLPRPRPRPLPSPRP | 0.0447
RRIRKRPPRLPRPRPRPLQWPRP | 0.0701
RRIRKRPPRLPRPRPRPLSHPRP | 0.131
RRIRKRPPRLPRPRPRPLSNPRP | 0.436
RRIRKRPPRLPRPRPRPLTAPRP | 0.403
RRIRKRPPRLPRPRPRPLTNPRP | -0.0294
RRIRKRPPRLPRPRPRPLTVPRP | 0.344
RRIRKRPPRLPRPRPRPLVFPRP | -0.0076
RRIRKRPPRLPRPRPRPLVQPRP | 0.459
RRIRKRPPRLPRPRPRPLVTPRP | 0.24
RRIRKRPPRLPRPRPRPLWVPRP | 0.0688
RRIRKRPPRLPRPRPRPLYMPRP | -0.514
RRIRKRPPRLPRPRPRPLYNPRP | -0.263
RRIRKRPPRLPRPRPRPMDDPRP | 0.123
RRIRKRPPRLPRPRPRPMEIPRP | 0.155
RRIRKRPPRLPRPRPRPMFRPRP | 0.0113
RRIRKRPPRLPRPRPRPMGCPRP | 0.408
RRIRKRPPRLPRPRPRPMHTPRP | 0.192

Sequence | shrunken log2 fold change
RRIRKRPPRLPRPRPRPMIQPRP | 0.195
RRIRKRPPRLPRPRPRPMKDPRP | 0.618
RRIRKRPPRLPRPRPRPMKPPRP | 0.145
RRIRKRPPRLPRPRPRPMLEPRP | 0.621
RRIRKRPPRLPRPRPRPMLSPRP | -0.227
RRIRKRPPRLPRPRPRPMLWPRP | 0.323
RRIRKRPPRLPRPRPRPMLYPRP | -0.26
RRIRKRPPRLPRPRPRPMMAPRP | 0.255
RRIRKRPPRLPRPRPRPMMLPRP | -0.0136
RRIRKRPPRLPRPRPRPMMNPRP | 0.154
RRIRKRPPRLPRPRPRPMNDPRP | 0.188
RRIRKRPPRLPRPRPRPMNPPRP | 0.0725
RRIRKRPPRLPRPRPRPMPTPRP | 0.0822
RRIRKRPPRLPRPRPRPMQFPRP | 0.105
RRIRKRPPRLPRPRPRPMRDPRP | 0.0228
RRIRKRPPRLPRPRPRPMRSPRP | 0.638
RRIRKRPPRLPRPRPRPMSEPRP | 0.148
RRIRKRPPRLPRPRPRPMSSPRP | 0.0811
RRIRKRPPRLPRPRPRPMSVPRP | -0.39
RRIRKRPPRLPRPRPRPMTNPRP | 0.184
RRIRKRPPRLPRPRPRPMTPPRP | 0.334
RRIRKRPPRLPRPRPRPMTYPRP | -0.212
RRIRKRPPRLPRPRPRPMWGPRP | -0.0954
RRIRKRPPRLPRPRPRPMWLPRP | 0.642
RRIRKRPPRLPRPRPRPMYPPRP | 0.00349

Sequence | shrunken log2 fold change
RRIRKRPPRLPRPRPRPNAAPRP | 0.986
RRIRKRPPRLPRPRPRPNAEPRP | 0.531
RRIRKRPPRLPRPRPRPNCAPRP | 0.873
RRIRKRPPRLPRPRPRPNCLPRP | -0.0339
RRIRKRPPRLPRPRPRPNCTPRP | 0.335
RRIRKRPPRLPRPRPRPNDIPRP | 0.0543
RRIRKRPPRLPRPRPRPNFFPRP | 0.0314
RRIRKRPPRLPRPRPRPNGTPRP | -0.0678
RRIRKRPPRLPRPRPRPNIAPRP | 0.262
RRIRKRPPRLPRPRPRPNIMPRP | -0.189
RRIRKRPPRLPRPRPRPNIVPRP | 0.135
RRIRKRPPRLPRPRPRPNLCPRP | 0.118
RRIRKRPPRLPRPRPRPNLFPRP | 0.00721
RRIRKRPPRLPRPRPRPNMFPRP | -0.155
RRIRKRPPRLPRPRPRPNMWPRP | -0.109
RRIRKRPPRLPRPRPRPNNMPRP | -0.304
RRIRKRPPRLPRPRPRPNNPPRP | -0.00604
RRIRKRPPRLPRPRPRPNPIPRP | 0.0804
RRIRKRPPRLPRPRPRPNQAPRP | -0.171
RRIRKRPPRLPRPRPRPNQEPRP | -0.0316
RRIRKRPPRLPRPRPRPNRYPRP | 0.0446
RRIRKRPPRLPRPRPRPNTIPRP | 0.0945
RRIRKRPPRLPRPRPRPNVPPRP | 0.11
RRIRKRPPRLPRPRPRPNVYPRP | -0.0771
RRIRKRPPRLPRPRPRPNYAPRP | -0.0324

Sequence | shrunken log2 fold change
RRIRKRPPRLPRPRPRPPCDPRP | 0.415
RRIRKRPPRLPRPRPRPPELPRP | 0.23
RRIRKRPPRLPRPRPRPPFNPRP | 0.0386
RRIRKRPPRLPRPRPRPPGCPRP | 0.955
RRIRKRPPRLPRPRPRPPGFPRP | 0.55
RRIRKRPPRLPRPRPRPPGQPRP | 1.25
RRIRKRPPRLPRPRPRPPGWPRP | 0.675
RRIRKRPPRLPRPRPRPPHFPRP | 0.519
RRIRKRPPRLPRPRPRPPHKPRP | 0.835
RRIRKRPPRLPRPRPRPPHWPRP | 0.756
RRIRKRPPRLPRPRPRPPIPPRP | 0.987
RRIRKRPPRLPRPRPRPPLGPRP | 0.668
RRIRKRPPRLPRPRPRPPLHPRP | 0.694
RRIRKRPPRLPRPRPRPPLSPRP | 0.832
RRIRKRPPRLPRPRPRPPRNPRP | 0.671
RRIRKRPPRLPRPRPRPPSNPRP | 0.714
RRIRKRPPRLPRPRPRPQAFPRP | -0.0237
RRIRKRPPRLPRPRPRPQAGPRP | -0.00963
RRIRKRPPRLPRPRPRPQAKPRP | -0.00692
RRIRKRPPRLPRPRPRPQAPPRP | 0.537
RRIRKRPPRLPRPRPRPQCMPRP | 0.0247
RRIRKRPPRLPRPRPRPQCQPRP | 0.114
RRIRKRPPRLPRPRPRPQEKPRP | -0.0233
RRIRKRPPRLPRPRPRPQFCPRP | 0.0712
RRIRKRPPRLPRPRPRPQGDPRP | 0.0739

Sequence | shrunken log2 fold change
RRIRKRPPRLPRPRPRPQGMPRP | -0.027
RRIRKRPPRLPRPRPRPQGYPRP | -0.0839
RRIRKRPPRLPRPRPRPQIHPRP | 0.0287
RRIRKRPPRLPRPRPRPQINPRP | -0.159
RRIRKRPPRLPRPRPRPQLFPRP | 0.364
RRIRKRPPRLPRPRPRPQMVPRP | -0.0031
RRIRKRPPRLPRPRPRPQNGPRP | -0.178
RRIRKRPPRLPRPRPRPQNMPRP | -0.521
RRIRKRPPRLPRPRPRPQQMPRP | 0.313
RRIRKRPPRLPRPRPRPQRVPRP | 0.146
RRIRKRPPRLPRPRPRPQSRPRP | 0.0866
RRIRKRPPRLPRPRPRPQSSPRP | -0.0228
RRIRKRPPRLPRPRPRPQTKPRP | 0.069
RRIRKRPPRLPRPRPRPQWFPRP | -0.185
RRIRKRPPRLPRPRPRPQYDPRP | -0.212
RRIRKRPPRLPRPRPRPRAGPRP | 0.48
RRIRKRPPRLPRPRPRPRANPRP | 0.588
RRIRKRPPRLPRPRPRPRAVPRP | 0.849
RRIRKRPPRLPRPRPRPRCLPRP | 0.226
RRIRKRPPRLPRPRPRPRDNPRP | 0.15
RRIRKRPPRLPRPRPRPRELPRP | 0.753
RRIRKRPPRLPRPRPRPRFEPRP | 0.43
RRIRKRPPRLPRPRPRPRGAPRP | 0.891
RRIRKRPPRLPRPRPRPRGPPRP | 1.23
RRIRKRPPRLPRPRPRPRHEPRP | -0.115

Sequence | shrunken log2 fold change
RRIRKRPPRLPRPRPRPRIKPRP | 0.185
RRIRKRPPRLPRPRPRPRITPRP | 0.227
RRIRKRPPRLPRPRPRPRNHPRP | 0.197
RRIRKRPPRLPRPRPRPRPPPRP | 1.15
RRIRKRPPRLPRPRPRPRQLPRP | 0.8
RRIRKRPPRLPRPRPRPRSLPRP | -0.00364
RRIRKRPPRLPRPRPRPRSYPRP | -0.134
RRIRKRPPRLPRPRPRPRTAPRP | 0.843
RRIRKRPPRLPRPRPRPRTLPRP | 0.454
RRIRKRPPRLPRPRPRPRTPPRP | 0.714
RRIRKRPPRLPRPRPRPRTYPRP | 0.0895
RRIRKRPPRLPRPRPRPRVKPRP | -0.0843
RRIRKRPPRLPRPRPRPRWLPRP | 0.796
RRIRKRPPRLPRPRPRPSAMPRP | 0.664
RRIRKRPPRLPRPRPRPSANPRP | 0.0126
RRIRKRPPRLPRPRPRPSAVPRP | 0.0941
RRIRKRPPRLPRPRPRPSCYPRP | -0.0656
RRIRKRPPRLPRPRPRPSDSPRP | -0.132
RRIRKRPPRLPRPRPRPSEGPRP | 0.0116
RRIRKRPPRLPRPRPRPSFMPRP | 1.94
RRIRKRPPRLPRPRPRPSFRPRP | -0.294
RRIRKRPPRLPRPRPRPSGPPRP | 0.0366
RRIRKRPPRLPRPRPRPSHAPRP | 0.155
RRIRKRPPRLPRPRPRPSHKPRP | -0.262
RRIRKRPPRLPRPRPRPSLHPRP | 0.0624
